Laboratory results: publication PMC10653929, “Activities, substrate specificity, and genetic interactions of fission yeast Siw14, a cysteinyl-phosphatase-type inositol pyrophosphatase” (mBio, 2023)
Values belong to the molecule of their own block, whether it stands above or below them.

How the values were obtained:
Cys403 = Cys403 (UniProt position 403, RPVIHCRAGVG); test: chemical modification; details: cited from earlier work
SpSiw14; Siw14-(1-287) = target: T1, SpSiw14; Siw14-(1-287) (Schizosaccharomyces pombe, UniProt Q9UUF3); test: inhibition of p-nitrophenylphosphate hydrolysis; format: biochemical
T1 construct: full length aa 1-287, E. coli BL21(DE3), His10Smt3 tag removed with Ulp1, monomer by gel filtration
T1 sequence (Q9UUF3 1-287): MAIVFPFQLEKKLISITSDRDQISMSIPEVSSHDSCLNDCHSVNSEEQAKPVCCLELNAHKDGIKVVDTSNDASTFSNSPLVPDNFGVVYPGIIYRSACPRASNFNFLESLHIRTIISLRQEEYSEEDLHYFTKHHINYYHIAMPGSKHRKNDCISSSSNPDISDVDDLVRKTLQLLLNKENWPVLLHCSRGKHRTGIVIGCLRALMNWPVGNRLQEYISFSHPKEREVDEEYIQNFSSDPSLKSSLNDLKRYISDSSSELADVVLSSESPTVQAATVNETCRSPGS
Excerpt: inhibition of p-nitrophenylphosphate hydrolysis on SpSiw14; Siw14-(1-287) | Phosphate and sulfate elicited a similar concentration-dependent inhibition of SpSiw14 phosphatase activity with an IC50

purified protein = substrate: O=[N+]([O-])c1ccc(OP(=O)(O)O)cc1; test: purified protein; format: biochemical, Schizosaccharomyces pombe; details: 25 mM Tris-acetate pH 5.0, 1 mM DTT, 37°C, no divalent cation
[1] = substrate: O=P(O)(O)OP(=O)(O)O; test: phosphate release by Malachite Green, Michaelis-Menten fit; format: biochemical, Schizosaccharomyces pombe; details: 25 mM Tris-acetate pH 5.0, 1 mM DTT, 37°C, no divalent cation, apparent kcat per PPi consumed

Molecule: Yersinia protein tyrosine phosphatase (Yersinia PTPase, YopH/Yop51) (Yersinia sp. (species not stated in the article; inferred Yersinia enterocolitica))
pKa (Cys403): 4.67

Molecule: O=S(=O)(O)O [sulfate]
IC50 (SpSiw14; Siw14-(1-287)): ~5 mM

IC50 (SpSiw14; Siw14-(1-287)): ~5 mM
Molecule: O=P(O)(O)O [inorganic phosphate]

B1: SpSiw14; Siw14-(1-287) (Schizosaccharomyces pombe 972h-) (protein)
chain: T1 sequence (Q9UUF3 1-287)
notes: full length aa 1-287, E. coli BL21(DE3), His10Smt3 tag removed with Ulp1, monomer by gel filtration
Km (purified protein): 1640 ± 180 µM
kcat (purified protein): 1.24 ± 0.045 s⁻¹
Km [1]: 1130 ± 340 µM
kcat [1]: 0.443 ± 0.0817 s⁻¹
